Experimental data: the supplement of paper PMC10065799, “High-throughput profiling of sequence recognition by tyrosine kinases and SH2 domains using bacterial peptide display” (eLife, 2023)

Key:
Grb2 SH2 = Grb2 SH2 (UniProt P62993); assay: SH2 binding enrichment of the phosphorylated peptide, bacterial display (enrichment ratio); higher = better substrate or ligand; peptides without Tyr show the background
c-Src SH2 = assay: as above
SHP2-C SH2 = assay: as above
Hck = Hck (UniProt P08631); assay: phosphorylation enrichment, bacterial display (enrichment ratio); higher = better substrate or ligand; peptides without Tyr show the background
EPHB2 = EPHB2 (UniProt P29323); assay: as above
Jak2 = Jak2 (UniProt O60674); assay: as above
Fer (mouse) = assay: as above
FGFR3 = FGFR3 (UniProt P22607); assay: as above
AncSZ = assay: as above
FGFR1 = FGFR1 (UniProt P11362); assay: as above
c-Src = assay: as above
MERTK = MERTK (UniProt Q12866); assay: as above
EPHB1 = EPHB1 (UniProt P54762); assay: as above
Fyn = Fyn (UniProt P06241); assay: as above
Fes = Fes (UniProt P07332); assay: as above
c-Abl (mouse) = assay: as above
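For SH2 binding enrichment of the phosphorylated peptide, bacterial display in this document: peptide library displayed on the E. coli surface as eCPX fusions, selected cells deep-sequenced, score is each peptide's frequency after selection divided by its frequency in the input.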
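For phosphorylation enrichment, bacterial display in this document: 11-residue human phosphosite peptides and single-mutation variants displayed on the E. coli surface, counted by deep sequencing, each peptide's frequency after selection divided by its frequency in the unselected input library; frequency after pTyr selection over input frequency; kinase dosed for 20-30% of maximal phosphorylation in three min.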

Sequence of EPHB2 (P29323 whole entry, looked up): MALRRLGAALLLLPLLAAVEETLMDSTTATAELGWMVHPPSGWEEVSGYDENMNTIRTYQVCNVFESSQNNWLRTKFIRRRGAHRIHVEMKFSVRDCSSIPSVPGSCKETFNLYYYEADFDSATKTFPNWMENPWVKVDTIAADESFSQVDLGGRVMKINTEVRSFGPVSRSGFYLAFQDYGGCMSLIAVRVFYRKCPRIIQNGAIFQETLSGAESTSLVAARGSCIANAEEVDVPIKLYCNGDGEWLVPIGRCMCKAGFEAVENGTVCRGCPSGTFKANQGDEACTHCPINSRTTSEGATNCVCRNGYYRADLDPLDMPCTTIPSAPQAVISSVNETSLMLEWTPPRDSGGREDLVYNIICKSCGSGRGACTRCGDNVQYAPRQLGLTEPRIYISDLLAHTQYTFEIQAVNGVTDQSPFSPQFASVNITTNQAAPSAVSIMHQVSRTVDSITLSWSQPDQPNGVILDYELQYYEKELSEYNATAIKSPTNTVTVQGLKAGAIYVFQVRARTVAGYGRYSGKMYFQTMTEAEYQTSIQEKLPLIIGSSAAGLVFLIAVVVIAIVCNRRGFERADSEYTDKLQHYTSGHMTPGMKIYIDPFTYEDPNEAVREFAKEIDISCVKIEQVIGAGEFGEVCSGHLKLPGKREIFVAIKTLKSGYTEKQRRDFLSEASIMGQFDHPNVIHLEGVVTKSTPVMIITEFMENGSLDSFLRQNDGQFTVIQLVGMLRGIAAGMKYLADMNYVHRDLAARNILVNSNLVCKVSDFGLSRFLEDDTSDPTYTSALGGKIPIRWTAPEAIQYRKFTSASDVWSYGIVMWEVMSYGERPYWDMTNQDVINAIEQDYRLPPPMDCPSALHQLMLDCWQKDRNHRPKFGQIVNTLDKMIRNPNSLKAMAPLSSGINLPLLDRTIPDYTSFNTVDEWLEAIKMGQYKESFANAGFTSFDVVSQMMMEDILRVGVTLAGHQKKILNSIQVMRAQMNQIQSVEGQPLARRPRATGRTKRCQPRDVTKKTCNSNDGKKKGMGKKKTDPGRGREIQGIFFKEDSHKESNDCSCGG
Sequence of MERTK (Q12866 whole entry, looked up): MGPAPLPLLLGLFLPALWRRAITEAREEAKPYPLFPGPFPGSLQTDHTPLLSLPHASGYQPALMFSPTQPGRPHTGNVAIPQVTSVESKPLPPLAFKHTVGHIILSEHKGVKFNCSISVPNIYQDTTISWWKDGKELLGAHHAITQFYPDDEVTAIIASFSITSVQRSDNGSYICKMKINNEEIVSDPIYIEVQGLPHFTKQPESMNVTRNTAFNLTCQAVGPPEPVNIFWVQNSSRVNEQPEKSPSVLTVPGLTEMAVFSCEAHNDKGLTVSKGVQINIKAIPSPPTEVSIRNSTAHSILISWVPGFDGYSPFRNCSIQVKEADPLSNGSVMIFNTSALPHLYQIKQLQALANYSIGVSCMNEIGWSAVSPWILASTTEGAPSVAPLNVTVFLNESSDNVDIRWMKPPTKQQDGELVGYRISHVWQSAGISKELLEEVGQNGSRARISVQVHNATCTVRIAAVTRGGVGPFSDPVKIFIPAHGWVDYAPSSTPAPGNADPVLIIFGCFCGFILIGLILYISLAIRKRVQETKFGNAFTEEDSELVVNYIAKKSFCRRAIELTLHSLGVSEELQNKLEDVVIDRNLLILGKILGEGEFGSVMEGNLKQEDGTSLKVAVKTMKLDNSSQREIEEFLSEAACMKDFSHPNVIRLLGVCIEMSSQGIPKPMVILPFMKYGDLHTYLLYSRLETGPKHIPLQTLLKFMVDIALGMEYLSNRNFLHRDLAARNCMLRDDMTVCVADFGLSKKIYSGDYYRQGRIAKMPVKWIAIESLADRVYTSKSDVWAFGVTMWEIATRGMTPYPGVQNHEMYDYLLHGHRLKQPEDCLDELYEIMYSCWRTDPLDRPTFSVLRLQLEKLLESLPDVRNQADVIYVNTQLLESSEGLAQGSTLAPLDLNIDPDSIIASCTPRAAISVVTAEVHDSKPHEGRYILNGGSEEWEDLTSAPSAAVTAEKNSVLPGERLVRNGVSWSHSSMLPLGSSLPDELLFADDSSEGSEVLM
Sequence of FGFR1 (P11362 whole entry, looked up): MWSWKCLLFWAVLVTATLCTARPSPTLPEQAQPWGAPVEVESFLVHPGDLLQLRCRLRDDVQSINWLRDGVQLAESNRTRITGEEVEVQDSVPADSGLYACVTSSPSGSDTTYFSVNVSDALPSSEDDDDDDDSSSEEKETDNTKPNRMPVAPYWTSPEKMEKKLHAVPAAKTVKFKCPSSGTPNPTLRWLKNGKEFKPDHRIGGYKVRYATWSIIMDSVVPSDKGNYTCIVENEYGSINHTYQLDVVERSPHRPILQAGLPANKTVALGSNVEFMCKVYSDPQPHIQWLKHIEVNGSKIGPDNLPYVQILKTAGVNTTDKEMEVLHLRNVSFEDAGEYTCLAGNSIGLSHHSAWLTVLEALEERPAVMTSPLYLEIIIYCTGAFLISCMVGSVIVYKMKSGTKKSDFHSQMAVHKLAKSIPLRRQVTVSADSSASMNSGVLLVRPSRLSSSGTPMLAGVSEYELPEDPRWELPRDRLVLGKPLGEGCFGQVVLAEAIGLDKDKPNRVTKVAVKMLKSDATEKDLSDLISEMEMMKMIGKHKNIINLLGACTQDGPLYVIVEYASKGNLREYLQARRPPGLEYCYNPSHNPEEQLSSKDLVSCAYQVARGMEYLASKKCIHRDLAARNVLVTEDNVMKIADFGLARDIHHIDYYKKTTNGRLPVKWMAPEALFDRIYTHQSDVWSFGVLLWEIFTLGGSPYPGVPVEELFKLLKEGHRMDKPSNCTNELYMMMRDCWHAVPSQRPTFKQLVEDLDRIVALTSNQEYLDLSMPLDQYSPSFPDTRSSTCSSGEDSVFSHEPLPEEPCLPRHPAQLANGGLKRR
Sequence of EPHB1 (P54762 whole entry, looked up): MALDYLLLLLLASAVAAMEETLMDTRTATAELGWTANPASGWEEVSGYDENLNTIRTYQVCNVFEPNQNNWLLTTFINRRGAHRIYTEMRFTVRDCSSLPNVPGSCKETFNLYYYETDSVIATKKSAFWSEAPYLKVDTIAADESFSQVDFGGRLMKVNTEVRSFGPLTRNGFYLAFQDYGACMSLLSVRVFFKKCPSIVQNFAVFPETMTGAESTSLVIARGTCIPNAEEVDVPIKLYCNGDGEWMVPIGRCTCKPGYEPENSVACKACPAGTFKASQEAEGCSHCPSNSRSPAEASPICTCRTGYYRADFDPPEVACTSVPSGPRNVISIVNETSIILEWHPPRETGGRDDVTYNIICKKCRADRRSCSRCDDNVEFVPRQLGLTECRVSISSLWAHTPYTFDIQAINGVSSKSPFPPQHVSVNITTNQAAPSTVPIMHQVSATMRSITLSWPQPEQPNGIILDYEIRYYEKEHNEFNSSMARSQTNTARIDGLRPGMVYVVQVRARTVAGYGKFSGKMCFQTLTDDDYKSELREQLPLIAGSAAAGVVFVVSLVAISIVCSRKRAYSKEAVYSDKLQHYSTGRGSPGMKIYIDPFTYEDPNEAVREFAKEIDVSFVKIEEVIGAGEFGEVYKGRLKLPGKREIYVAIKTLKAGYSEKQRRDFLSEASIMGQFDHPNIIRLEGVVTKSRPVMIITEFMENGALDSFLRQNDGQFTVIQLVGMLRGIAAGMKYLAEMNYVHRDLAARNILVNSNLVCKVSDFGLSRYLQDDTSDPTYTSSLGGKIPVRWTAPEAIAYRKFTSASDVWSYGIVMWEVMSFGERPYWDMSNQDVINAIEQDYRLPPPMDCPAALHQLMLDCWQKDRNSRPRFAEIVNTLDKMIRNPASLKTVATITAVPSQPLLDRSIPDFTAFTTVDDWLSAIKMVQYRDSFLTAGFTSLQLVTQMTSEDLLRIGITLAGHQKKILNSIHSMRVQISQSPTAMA
Sequence of Fes (P07332 whole entry, looked up): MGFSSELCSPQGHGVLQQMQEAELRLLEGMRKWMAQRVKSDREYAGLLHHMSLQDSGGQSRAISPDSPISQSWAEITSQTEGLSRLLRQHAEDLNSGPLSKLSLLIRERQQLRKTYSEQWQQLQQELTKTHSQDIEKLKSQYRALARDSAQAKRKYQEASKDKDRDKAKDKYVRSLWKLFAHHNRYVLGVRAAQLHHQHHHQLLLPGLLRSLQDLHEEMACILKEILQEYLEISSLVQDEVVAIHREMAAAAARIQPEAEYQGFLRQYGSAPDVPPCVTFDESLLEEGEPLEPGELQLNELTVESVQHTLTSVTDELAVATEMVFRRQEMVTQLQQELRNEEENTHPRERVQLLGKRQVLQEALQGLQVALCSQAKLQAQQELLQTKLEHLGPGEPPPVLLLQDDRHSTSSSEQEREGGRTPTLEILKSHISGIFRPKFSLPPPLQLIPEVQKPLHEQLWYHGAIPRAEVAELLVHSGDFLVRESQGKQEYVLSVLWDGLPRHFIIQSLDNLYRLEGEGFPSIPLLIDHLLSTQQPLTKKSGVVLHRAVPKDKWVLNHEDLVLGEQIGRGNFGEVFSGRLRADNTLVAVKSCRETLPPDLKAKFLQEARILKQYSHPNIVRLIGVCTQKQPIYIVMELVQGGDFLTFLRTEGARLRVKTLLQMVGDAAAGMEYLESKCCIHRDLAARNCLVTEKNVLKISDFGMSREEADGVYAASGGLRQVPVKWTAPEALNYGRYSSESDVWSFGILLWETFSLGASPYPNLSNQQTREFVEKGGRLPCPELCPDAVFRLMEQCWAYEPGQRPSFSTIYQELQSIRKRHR

Row | SH2 binding enrichment (Grb2 SH2) | SH2 binding enrichment (c-Src SH2) | SH2 binding enrichment (SHP2-C SH2) | Sequence | phosphorylation enrichment (Hck) | phosphorylation enrichment (EPHB2) | phosphorylation enrichment (Jak2) | phosphorylation enrichment (Fer (mouse)) | phosphorylation enrichment (FGFR3) | phosphorylation enrichment (AncSZ) | phosphorylation enrichment (FGFR1) | phosphorylation enrichment (c-Src) | phosphorylation enrichment (MERTK) | phosphorylation enrichment (EPHB1) | phosphorylation enrichment (Fyn) | phosphorylation enrichment (Fes) | phosphorylation enrichment (c-Abl (mouse))
1 | 0.74 | 0.395 | 0.6 | ENEGTYVCIAT [ADAMTSL3_Y1365] | 1.08 | 1.16 | 1.1 | 1.3 | 1.45 | 1.46 | 1.29 | 1.62 | 0.662 | 1.73 | 1.44 | 1.38 | 0.852
2 | 0.977 | 0.619 | 0.854 | EPDSLYGCGGG [ATM_Y2019] | 2.94 | 0.766 | 1.11 | 1.06 | 0.674 | 1.01 | 0.619 | 2.33 | 0.6 | 0.663 | 2.06 | 1.26 | 1.04
3 | 0.916 | 0.521 | 0.535 | EPFEVYRIVPE [IRF8_Y110_K108E_YF] | 2.37 | 0.72 | 0.882 | 0.411 | 1.03 | 1.05 | 1.25 | 3.68 | 0.62 | 0.662 | 3.41 | 1.03 | 0.798
4 | 0.818 | 0.476 | 0.669 | EPNSRYTFKLE [USH2A_Y3745_YF] | 0.393 | 0.448 | 0.76 | 0.397 | 0.596 | 0.808 | 0.379 | 0.365 | 0.373 | 0.479 | 0.408 | 0.963 | 0.658
5 | 0.804 | 0.414 | 0.567 | EPSVPYRGMVF [GLI3_Y104_T107M] | 0.376 | 0.56 | 0.639 | 0.38 | 0.508 | 0.704 | 0.422 | 0.462 | 0.432 | 0.43 | 0.413 | 0.816 | 0.471
6 | 0.803 | 0.491 | 0.711 | EPSVPYRGTVF [GLI3_Y104] | 0.441 | 0.567 | 0.783 | 0.424 | 0.478 | 0.566 | 0.447 | 0.46 | 0.487 | 0.447 | 0.545 | 0.698 | 0.534
7 | 1.11 | 0.695 | 0.564 | EPYELYCEMGS [CBL_Y371_Q367P] | 4.22 | 6.42 | 1.61 | 3.52 | 3.14 | 3.71 | 3.54 | 4.82 | 3.54 | 5.73 | 4.13 | 1.74 | 2.36
8 | 0.868 | 0.646 | 0.627 | EQKKYSNAMKK [SCN5A_Y1495_Y1495S] | 0.467 | 0.333 | 0.437 | 0.247 | 0.459 | 0.498 | 0.304 | 0.262 | 0.29 | 0.326 | 0.322 | 0.53 | 0.469
9 | 0.869 | 0.732 | 0.785 | EQPNPYMVLDI [ROCK2_Y1197_S1194P] | 1.23 | 0.571 | 1.06 | 2.87 | 1.09 | 1.15 | 1.13 | 3.03 | 2.06 | 0.653 | 2.46 | 1.07 | 0.575
10 | 0.781 | 0.703 | 0.74 | EREYKYDAHNY [OAT_Y50_G51D] | 0.498 | 0.575 | 0.8 | 0.559 | 0.574 | 0.757 | 0.445 | 0.367 | 0.429 | 0.412 | 0.434 | 1 | 0.705
11 | 0.728 | 0.708 | 0.626 | ERIEFYELDKK [PMM2_Y145] | 0.588 | 0.554 | 0.892 | 0.742 | 0.76 | 1.05 | 0.395 | 0.49 | 0.393 | 0.652 | 0.484 | 1.09 | 0.771
12 | 0.822 | 0.467 | 0.492 | ERIEFYELNKK [PMM2_Y145_D148N] | 0.486 | 0.71 | 0.731 | 0.619 | 0.541 | 0.968 | 0.489 | 0.507 | 0.506 | 0.542 | 0.497 | 0.844 | 0.486
13 | 0.712 | 9.05 | 0.473 | ESLRSYDVMDV [KCNQ2_Y562_P561S] | 0.616 | 0.714 | 0.921 | 0.555 | 0.993 | 1.03 | 0.581 | 0.509 | 0.523 | 0.663 | 0.556 | 1.28 | 0.817
14 | 0.858 | 0.556 | 0.795 | ESLSSYRESAK [APOC2_Y47_W48R] | 0.305 | 0.317 | 0.487 | 0.314 | 0.456 | 0.63 | 0.382 | 0.303 | 0.391 | 0.252 | 0.342 | 0.529 | 0.495
15 | 0.889 | 0.713 | 0.753 | ESLSSYWESAK [APOC2_Y47] | 0.464 | 0.576 | 0.888 | 0.354 | 0.692 | 0.84 | 0.63 | 0.392 | 0.381 | 0.527 | 0.414 | 1.01 | 0.584
16 | 0.931 | 0.554 | 0.891 | ESTPLYPMLFG [SCLY_Y280_F276S] | 0.503 | 0.508 | 1.09 | 0.507 | 8.03 | 0.768 | 11.7 | 0.47 | 2.23 | 0.686 | 0.6 | 0.969 | 0.619
17 | 0.703 | 0.45 | 0.654 | ETAENYLGFTA [HSPA9_Y181_H184Y_YF] | 0.53 | 0.633 | 0.855 | 0.486 | 0.807 | 1.17 | 0.578 | 0.569 | 0.514 | 0.743 | 0.505 | 1.1 | 0.879

Row | SH2 binding enrichment (Grb2 SH2) | SH2 binding enrichment (c-Src SH2) | SH2 binding enrichment (SHP2-C SH2) | Sequence | phosphorylation enrichment (Hck) | phosphorylation enrichment (EPHB2) | phosphorylation enrichment (Jak2) | phosphorylation enrichment (Fer (mouse)) | phosphorylation enrichment (FGFR3) | phosphorylation enrichment (AncSZ) | phosphorylation enrichment (FGFR1) | phosphorylation enrichment (c-Src) | phosphorylation enrichment (MERTK) | phosphorylation enrichment (EPHB1) | phosphorylation enrichment (Fyn) | phosphorylation enrichment (Fes) | phosphorylation enrichment (c-Abl (mouse))
18 | 1.16 | 0.664 | 0.562 | ETKENYGKTLK [CHL1_Y291] | 0.498 | 0.297 | 0.504 | 0.351 | 0.508 | 0.526 | 0.325 | 0.433 | 0.383 | 0.348 | 0.61 | 0.541 | 0.414
19 | 0.815 | 1.08 | 0.54 | ETKGDYEKILV [ANXA1_Y335] | 0.651 | 0.625 | 1.01 | 1.04 | 0.682 | 1.16 | 0.548 | 0.523 | 0.454 | 0.713 | 0.506 | 1.17 | 0.82
20 | 0.726 | 0.417 | 0.737 | EVGRVYLFLQP [ITGA2B_Y360] | 0.445 | 0.676 | 1.3 | 0.627 | 0.676 | 1.18 | 0.401 | 0.409 | 0.34 | 0.838 | 0.379 | 1.51 | 0.884
21 | 0.714 | 0.56 | 0.744 | EVKRLYGSVCD [TC2N_Y154] | 0.61 | 0.585 | 1.06 | 0.543 | 0.703 | 0.866 | 0.475 | 0.656 | 0.515 | 0.529 | 0.695 | 1.16 | 0.849
22 | 0.887 | 0.501 | 0.782 | EVLKNYSQQKD [GOLGA4_Y1551_N1552S] | 0.476 | 0.456 | 0.657 | 0.417 | 0.56 | 0.545 | 0.404 | 0.433 | 0.458 | 0.419 | 0.438 | 0.609 | 0.494
23 | 0.672 | 0.461 | 0.648 | EVTQDYGLDPK [FH_Y110_N107T] | 0.574 | 0.637 | 1.06 | 0.625 | 0.902 | 1.32 | 0.558 | 0.504 | 0.528 | 0.606 | 0.513 | 1.36 | 0.842
24 | 0.954 | 0.455 | 0.842 | EVVGKYSVHNA [MLH1_Y183_R182K] | 0.388 | 0.363 | 0.569 | 0.426 | 0.449 | 0.612 | 0.352 | 0.438 | 0.374 | 0.363 | 0.428 | 0.697 | 0.527
25 | 0.819 | 0.435 | 0.614 | EYKKKYSDADI [CKAP5_Y1860] | 0.367 | 0.474 | 0.671 | 0.399 | 0.475 | 0.709 | 0.404 | 0.371 | 0.383 | 0.393 | 0.442 | 0.819 | 0.637
26 | 2.13 | 1.04 | 0.706 | EYYENYIEELK [PARP4_Y218_F215Y] | 0.554 | 0.967 | 1.11 | 0.706 | 3.7 | 2.04 | 4.75 | 1.01 | 0.38 | 1.09 | 0.648 | 1.29 | 0.775
27 | 0.62 | 0.566 | 0.564 | FADIAYNFHHG [PAH_Y166_R169H_YF] | 0.528 | 0.524 | 0.43 | 0.483 | 0.478 | 0.686 | 0.515 | 0.501 | 0.406 | 0.427 | 0.704 | 0.725 | 0.354
28 | 0.861 | 1.9 | 0.506 | FALAEYTEVKT [ALDH1A3_Y497_YF] | 0.635 | 0.475 | 0.765 | 0.567 | 0.903 | 1.03 | 0.894 | 0.621 | 0.45 | 0.59 | 0.719 | 1.11 | 0.757
29 | 0.81 | 0.442 | 0.517 | FARNSYVAGQF [G6PD_Y107_YF] | 0.501 | 0.398 | 0.522 | 0.36 | 0.522 | 0.662 | 0.503 | 0.408 | 0.427 | 0.321 | 0.489 | 0.712 | 0.442
30 | 0.93 | 0.8 | 0.862 | FCRIMYDIFPF [INTS13_Y67_YF] | 3.11 | 2.61 | 1.57 | 1.18 | 0.743 | 1.71 | 0.531 | 3 | 4.83 | 2.66 | 1.31 | 1.74 | 1.38
31 | 0.849 | 0.506 | 0.496 | FFRDGCMPRQF [GSS_Y270_Y270C_YF] | 0.497 | 0.518 | 0.949 | 0.489 | 0.606 | 0.863 | 0.416 | 0.463 | 0.386 | 0.533 | 0.464 | 1.2 | 0.717
32 | 1.05 | 0.81 | 0.782 | FFWDGYMPRQF [GSS_Y270_R267W_YF] | 0.471 | 0.551 | 3.7 | 0.504 | 0.735 | 1.12 | 0.481 | 0.43 | 0.398 | 0.601 | 0.349 | 1.19 | 0.734
33 | 0.809 | 0.602 | 0.757 | FGDTPYIPFRD [CDC14C_Y132] | 0.54 | 0.458 | 0.646 | 0.542 | 0.662 | 0.764 | 0.522 | 0.781 | 0.445 | 0.495 | 0.55 | 0.905 | 0.589
